Molecular target: endothelial protein C receptor (EPCR), residues 16 to 210, biotinylated on the BAP tag (human) (UniProt Q9UNN8)
Test: SPR

Chain of endothelial protein C receptor (EPCR), residues 16 to 210, biotinylated on the BAP tag (human) (Q9UNN8 16-210): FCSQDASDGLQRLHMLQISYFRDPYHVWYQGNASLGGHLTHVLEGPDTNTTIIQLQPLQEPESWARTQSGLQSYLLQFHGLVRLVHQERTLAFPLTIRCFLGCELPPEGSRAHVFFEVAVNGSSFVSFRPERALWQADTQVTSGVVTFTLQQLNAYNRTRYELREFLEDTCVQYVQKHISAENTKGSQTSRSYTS

HB3var03 CIDRα1.4 domain D576A K642A double mutant (domain or fragment)
Kd: 0.22 µM

— publication doi:10.1101/749432
